Ends that are not written are not given here.

Kd, kon and koff data for 2 molecules are collected here from patent publication US20160376353A1 (DECIMMUNE THERAPEUTICS, published 2016).

Test [1] has as its target T1, Biotin-labeled N2 peptide (also: biotin label, position not given here).
T1 construct: also called immobilized N2
T1 peptide: LMKNMDPLNDNV
The test is described as follows: SPR (BIACORE X100), biotin-N2 peptide on NeutrAvidin chip, antibody in solution; kd/ka (monovalent). From the text:
(§1) The remaining sequences represent the germline sequences with the highest homology that encode productive antibody. All of the humanized sequences maintain the murine 21G6 CDR regions which are shown inside the boxes in FIG. 1. The humanized variable regions were cloned into a vector containing wild type human IgG1, human IgG1 containing a mutation at amino acid 297 (Asn 297 to Q297), human IgG4 containing a mutation at amino acid 228 (serine to proline) and human kappa light chain. Each antibody (heavy and light) combination was expressed by transient co-transfection in 293A cells (in the presence of low Ig serum). The antibody containing supernatants were collected and analyzed for binding to the N2 peptide by ELISA and BIACORE™ X100 system. All experiments were performed using a BIACORE™ X100 system. For antibody capture experiments, a CM5 chip was prepared by 10 ul/minute injection of EDC/NHS (N-ethyl-N′-(3-dimethylaminopropyl) carbodiimide (EDC), N-hydroxysuccinimide (NHS) for 7 minutes, followed by a 10 ul/minute injection of anti-human Fc (GE Lifesciences) at a concentration of 25 ug/ml in sodium acetate at pH 5 for 3 minutes. Ethanolamine-HCl was injected for 7 minutes at 10 ul/minute. The chimeric or humanized antibodies were captured onto flow cell 2 and N2 peptide at varying concentrations was flowed over flow cells 1 and 2 at a rate of 30 ul/minute with a contact time of 120 seconds and a dissociation period of 120 seconds. Complete removal of captured antibody was accomplished by regeneration with 3M MgCl2 for 30 seconds at a flow rate of 10 ul/minute. For peptide immobilized experiments, a CM5 chip was prepared by 10 ul/minute injection of EDC/NHS (N-ethyl-N′-(3-dimethylaminopropyl) carbodiimide (EDC), N-hydroxysuccinimide (NHS) for 7 minutes, followed by a 10 ul/minute injection of NEUTRAVIDIN® protein (ThermoFisher Pierce) at a concentration of 5 ug/ml in sodium acetate, pH 5 to an immobilization response of 100-200RU. Ethanolamine-HCl was injected for 7 minutes at 10 ul/minute. Biotin-labeled N2 peptide was captured on flow channel 2 with the goal of an experimental Rmax of about 50-100RU. Purified chimeric or humanized antibodies were flowed over both flow channels at a rate of 30 ul/min for a contact time of 120 seconds and allowed to dissociate for 600 seconds.

For test [2], the target named is T1, Biotin-labeled N2 peptide. Kind of test: SPR (BIACORE X100), biotin-N2 peptide on NeutrAvidin chip, antibody in solution; steady state affinity.
Excerpt: as §1, with “The” for “The remaining sequences represent the germline sequences with the highest homology that encode productive antibody. All of the humanized sequences maintain the murine 21G6 CDR regions which are shown inside the boxes in FIG. 1. The”

Test [3] has as its target T2, N2 peptide (non-muscle myosin neo-epitope N2 12mer sequence).
T2 construct: also called N2 12-mer peptide
T2 peptide: LMKNMDPLNDNV
The test is described as follows: SPR (BIACORE X100), immobilized antibody, N2 peptide in solution; lower end of the printed range 4-6 uM. From the text: (§2) The remaining sequences represent the germline sequences with the highest homology that encode productive antibody. All of the humanized sequences maintain the murine 21G6 CDR regions which are shown inside the boxes in FIG. 1. The humanized variable regions were cloned into a vector containing wild type human IgG1, human IgG1 containing a mutation at amino acid 297 (Asn 297 to Q297), human IgG4 containing a mutation at amino acid 228 (serine to proline) and human kappa light chain. Each antibody (heavy and light) combination was expressed by transient co-transfection in 293A cells (in the presence of low Ig serum). The antibody containing supernatants were collected and analyzed for binding to the N2 peptide by ELISA and BIACORE™ X100 system. All experiments were performed using a BIACORE™ X100 system. […]

Test [4] deals with T1, Biotin-labeled N2 peptide. The test is described as follows: SPR (BIACORE X100), biotin-N2 peptide on NeutrAvidin chip, antibody in solution; upper end of the printed range 1-11.
Excerpt: as §2

Test [5] addresses T1, Biotin-labeled N2 peptide. The test is described as follows: SPR (BIACORE X100), biotin-N2 peptide on NeutrAvidin chip, antibody in solution; upper end of the printed range 5-53.
Excerpt: as §2

Test [6] has as its target T2, N2 peptide (non-muscle myosin …). Kind of test: SPR (BIACORE X100), antibody captured by anti-human Fc, N2 peptide in solution.
Excerpt: as §1

The target in test [7] is T1, Biotin-labeled N2 peptide. The test is described as follows: SPR (BIACORE X100), biotin-N2 peptide on NeutrAvidin chip, antibody in solution; upper end of the printed range 7-10.
Excerpt: as §2

In test [8] the target is T1, Biotin-labeled N2 peptide. The test is described as follows: SPR (BIACORE X100), biotin-N2 peptide on NeutrAvidin chip, antibody in solution; upper end of the printed range 7-19.
Excerpt: as §2

B1: Murine 21G6 antibody (antibody, V domains shown)
VH: QVQLQQPGAELVKPGASVKLSCKASGYTFTSYYMYWVKQRPGQGLEWIGGINPSNGGTNFNEKFKSKATLTVDKSSSTAYMQLSSLTSEDSAVYYCTRWGYDREWFAYWGQGTLVTVSA
VL: DIVMTQAAPSVPVTPGESVSISCRSSKSLLHSNGNTYLYWFLQRPGQSPQVLIYRMSNLASGVPDRFSGSGSGTAFTLRISRVEAEDVGVYYCMQHLEYPFTFGSGTKLEIKR
notes: also called m21G6
As to B1, the Kd in test [1] lay in the range of 200 to 400 nM; in test [2], 313 to 540 nM; in test [3] it was 4 to 6 µM. For the same molecule, the kon in test [4] stood at 110000 M⁻¹ s⁻¹. For the same molecule, the koff in test [5] worked out at 0.053 s⁻¹.

B2: Chimeric 21G6, human heavy chain constant region IgG1 with Q297 mutation (antibody, V domains shown)
VH: B1 VH
VL: B1 VL
notes: Human IgG1 constant region with Asn 297 to Gln; also called ch21G6 N297Q
B2: the results for the Kd in test [6], in test [1] and in test [2] were 5.6 µM, 100 to 200 nM and 196 to 240 nM, respectively. In test [7], the kon was 100000 M⁻¹ s⁻¹. In test [8], the koff is 0.019 s⁻¹.
